According to US20120172295A1 (INDIANA UNIVERSITY RESEARCH AND TECHNOLOGY, published 2012):
Positions of bridges follow the written chain, without caps; N, C: chain ends. Non-standard residues stand in square brackets, D forms with d. No end group written: not given here. *: point of attachment. Isobutyryl(2-imidazol-4-yl) = CC(C)(C(=O)*)c1c[nH]cn1; Palmitoyl = CCCCCCCCCCCCCCCC(=O)*; Myristoyl = CCCCCCCCCCCCCC(=O)*; DMIA = not defined here; PEG = not defined here; Aib = CC(C)(N)C(=O)O

Key:
Experiment in all cases: cell-based or functional assay
glucagon receptor [1] = target: T1, glucagon receptor (UniProt P47871 26-477, limits assumed)
GLP-1 receptor [2] = target: T2, GLP-1 receptor (UniProt P43220 24-463, limits assumed)
glucagon receptor [3] = target: T1, glucagon receptor; remark: listed apart in the source
GLP-1 receptor [4] = target: T2, GLP-1 receptor; remark: listed apart in the source

T1 sequence (P47871 26-477 limits assumed): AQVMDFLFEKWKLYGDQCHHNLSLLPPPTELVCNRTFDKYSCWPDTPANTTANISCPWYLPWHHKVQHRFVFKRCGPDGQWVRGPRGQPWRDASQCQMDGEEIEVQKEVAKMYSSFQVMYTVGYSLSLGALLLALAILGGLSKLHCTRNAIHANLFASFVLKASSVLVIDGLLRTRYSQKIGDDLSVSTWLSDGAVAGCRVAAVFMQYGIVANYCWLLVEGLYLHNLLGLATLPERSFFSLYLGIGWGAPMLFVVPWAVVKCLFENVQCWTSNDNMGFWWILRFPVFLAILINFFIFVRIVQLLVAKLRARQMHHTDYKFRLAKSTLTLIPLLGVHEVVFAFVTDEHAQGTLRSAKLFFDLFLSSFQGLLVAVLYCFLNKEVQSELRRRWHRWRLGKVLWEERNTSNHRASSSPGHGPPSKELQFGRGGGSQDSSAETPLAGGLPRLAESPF

B1: Chimera DMIA1, Cys24 (SEQ ID NO: 519), parent w/PEG (peptide)
peptide: [Isobutyryl(2-imidazol-4-yl)]SQGTFTSDYSKYLDEQAAKEFIC(PEG)WLMNT-NH2
modifications: reading uncertain
% Potency Relative to Native (glucagon receptor [1]): 6.9% | % Potency Relative to Native (GLP-1 receptor [2]): 19.3%

B2: E16, K20 AIB2, Cys24 Lactam (SEQ ID NO: 517), parent w/o PEG (peptide)
peptide: H[Aib]QGTFTSDYSKYLDERRAKDFVCWLMNT-NH2
modifications: lactam 16-20; N-terminus assumed
SMILES: CSCC[C@H](NC(=O)[C@H](CC(C)C)NC(=O)[C@H](Cc1c[nH]c2ccccc12)NC(=O)[C@H](CS)NC(=O)[C@@H](NC(=O)[C@H](Cc1ccccc1)NC(=O)[C@H](CC(=O)O)NC(=O)[C@@H]1CCCCNC(=O)CC[C@H](NC(=O)[C@H](CC(=O)O)NC(=O)[C@H](CC(C)C)NC(=O)[C@H](Cc2ccc(O)cc2)NC(=O)[C@H](CCCCN)NC(=O)[C@H](CO)NC(=O)[C@H](Cc2ccc(O)cc2)NC(=O)[C@H](CC(=O)O)NC(=O)[C@H](CO)NC(=O)[C@@H](NC(=O)[C@H](Cc2ccccc2)NC(=O)[C@@H](NC(=O)CNC(=O)[C@H](CCC(N)=O)NC(=O)C(C)(C)NC(=O)[C@@H](N)Cc2c[nH]cn2)[C@@H](C)O)[C@@H](C)O)C(=O)N[C@@H](CCCNC(=N)N)C(=O)N[C@@H](CCCNC(=N)N)C(=O)N[C@@H](C)C(=O)N1)C(C)C)C(=O)N[C@@H](CC(N)=O)C(=O)N[C@H](C(N)=O)[C@@H](C)O
% Potency Relative to Native (glucagon receptor [1]): 108% | % Potency Relative to Native (GLP-1 receptor [2]): 96.9%

B3: DMIA1, K10(C18), [E16/K20]-Gluc Amide (peptide)
peptide: XSQGTFTSDKSKYLDERRAKDFVQWLMNT
modifications: DMIA at 1; Lys 10-C18 acyl; [E16/K20]; C-terminal amide
% Activity of Glucagon (glucagon receptor [3]): 42.3% | % Activity of GLP-1 (GLP-1 receptor [4]): 136% | EC50 (GLP-1 receptor [4]): 0.011 nM

B4: E16, K20AIB2, A18 Gly29,30 Cys24 Cex (SEQ ID NO: 496), parent w/PEG (peptide)
peptide: H[Aib]QGTFTSDYSKYLDERAAKDFVC(PEG)WLMNGGPSSGAPPPS-NH2
modifications: not fully specified; reading uncertain
% Potency Relative to Native (glucagon receptor [1]): 0.1% | % Potency Relative to Native (GLP-1 receptor [2]): 88.5%

B5: Chimera DMIA1, Cys29 (SEQ ID NO: 520), parent w/PEG (peptide)
peptide: [Isobutyryl(2-imidazol-4-yl)]SQGTFTSDYSKYLDEQAAKEFIAWLMNC(PEG)-NH2
modifications: reading uncertain
% Potency Relative to Native (glucagon receptor [1]): 5.3% | % Potency Relative to Native (GLP-1 receptor [2]): 27.3%

B6: E16, K20AIB2, A18 Cys24 (SEQ ID NO: 492), parent w/PEG (peptide)
peptide: H[Aib]QGTFTSDYSKYLDERAAKDFVC(PEG)WLMNT-NH2
modifications: reading uncertain
% Potency Relative to Native (glucagon receptor [1]): 1.1% | % Potency Relative to Native (GLP-1 receptor [2]): 73.5%

B7: Chimera DMIA1, Cys24 Lactam (SEQ ID NO: 505), parent w/o PEG (peptide)
peptide: [Isobutyryl(2-imidazol-4-yl)]SQGTFTSDYSKYLDEQAAKEFICWLMNT-NH2
modifications: lactam 16-20
SMILES: CC[C@H](C)[C@H](NC(=O)[C@H](Cc1ccccc1)NC(=O)[C@H](CCC(=O)O)NC(=O)[C@@H]1CCCCNC(=O)CC[C@H](NC(=O)[C@H](CC(=O)O)NC(=O)[C@H](CC(C)C)NC(=O)[C@H](Cc2ccc(O)cc2)NC(=O)[C@H](CCCCN)NC(=O)[C@H](CO)NC(=O)[C@H](Cc2ccc(O)cc2)NC(=O)[C@H](CC(=O)O)NC(=O)[C@H](CO)NC(=O)[C@@H](NC(=O)[C@H](Cc2ccccc2)NC(=O)[C@@H](NC(=O)CNC(=O)[C@H](CCC(N)=O)NC(=O)[C@H](CO)NC(=O)C(C)(C)c2c[nH]cn2)[C@@H](C)O)[C@@H](C)O)C(=O)N[C@@H](CCC(N)=O)C(=O)N[C@@H](C)C(=O)N[C@@H](C)C(=O)N1)C(=O)N[C@@H](CS)C(=O)N[C@@H](Cc1c[nH]c2ccccc12)C(=O)N[C@@H](CC(C)C)C(=O)N[C@@H](CCSC)C(=O)N[C@@H](CC(N)=O)C(=O)N[C@H](C(N)=O)[C@@H](C)O
% Potency Relative to Native (glucagon receptor [1]): 161% | % Potency Relative to Native (GLP-1 receptor [2]): 82.5%

B8: Chimera Cys24 (SEQ ID NO: 518), parent w/PEG (peptide)
peptide: HSQGTFTSDYSKYLDEQAAKEFIC(PEG)WLMNT-NH2
modifications: reading uncertain
% Potency Relative to Native (glucagon receptor [1]): 19.8% | % Potency Relative to Native (GLP-1 receptor [2]): 29.3%

B9: Chimera DMIA1, Cys24 Lactam (SEQ ID NO: 505), parent w/PEG (peptide)
peptide: [Isobutyryl(2-imidazol-4-yl)]SQGTFTSDYSKYLDEQAAKEFIC(PEG)WLMNT-NH2
modifications: lactam 16-20; reading uncertain
% Potency Relative to Native (glucagon receptor [1]): 19.1% | % Potency Relative to Native (GLP-1 receptor [2]): 12.5%

B10: DMIA1, K10(C16), [E16/K20]-Gluc Amide (peptide)
peptide: XSQGTFTSDKSKYLDERRAKDFVQWLMNT
modifications: DMIA at 1; Lys 10-C16 acyl; [E16/K20]; C-terminal amide
% Activity of Glucagon (glucagon receptor [3]): 392% | % Activity of GLP-1 (GLP-1 receptor [4]): 100%

B11: E16, K20 DMIA1, Gly29,30 Cys24 Cex Lactam (SEQ ID NO: 513), parent w/o PEG (peptide)
peptide: [DMIA]SQGTFTSDYSKYLDERRAKDFVCWLMNGGPSSGAPPPS-NH2
modifications: lactam 16-20; reading uncertain
% Potency Relative to Native (glucagon receptor [1]): 116% | % Potency Relative to Native (GLP-1 receptor [2]): 78.3%

B12: AIB2, AIB16, K10(C16) Gluc Amide (SEQ ID NO: 611) (peptide)
peptide: H[Aib]QGTFTSDK(Palmitoyl)SKYLD[Aib]RRAQDFVQWLMNT-NH2
% Activity of Glucagon (glucagon receptor [3]): 170% | EC50 (glucagon receptor [3]): 0.02 nM | % Activity of GLP-1 (GLP-1 receptor [4]): 72.3%

B13: Chimera AIB2, Gly29,30 Cys24 Cex Lactam (SEQ ID NO: 491), parent w/o PEG (peptide)
peptide: H[Aib]QGTFTSDYSKYLDEQAAKEFICWLMNGGPSSGAPPPS-NH2
modifications: lactam 16-20; N-terminus assumed
SMILES: CC[C@H](C)[C@H](NC(=O)[C@H](Cc1ccccc1)NC(=O)[C@H](CCC(=O)O)NC(=O)[C@@H]1CCCCNC(=O)CC[C@H](NC(=O)[C@H](CC(=O)O)NC(=O)[C@H](CC(C)C)NC(=O)[C@H](Cc2ccc(O)cc2)NC(=O)[C@H](CCCCN)NC(=O)[C@H](CO)NC(=O)[C@H](Cc2ccc(O)cc2)NC(=O)[C@H](CC(=O)O)NC(=O)[C@H](CO)NC(=O)[C@@H](NC(=O)[C@H](Cc2ccccc2)NC(=O)[C@@H](NC(=O)CNC(=O)[C@H](CCC(N)=O)NC(=O)C(C)(C)NC(=O)[C@@H](N)Cc2c[nH]cn2)[C@@H](C)O)[C@@H](C)O)C(=O)N[C@@H](CCC(N)=O)C(=O)N[C@@H](C)C(=O)N[C@@H](C)C(=O)N1)C(=O)N[C@@H](CS)C(=O)N[C@@H](Cc1c[nH]c2ccccc12)C(=O)N[C@@H](CC(C)C)C(=O)N[C@@H](CCSC)C(=O)N[C@@H](CC(N)=O)C(=O)NCC(=O)NCC(=O)N1CCC[C@H]1C(=O)N[C@@H](CO)C(=O)N[C@@H](CO)C(=O)NCC(=O)N[C@@H](C)C(=O)N1CCC[C@H]1C(=O)N1CCC[C@H]1C(=O)N1CCC[C@H]1C(=O)N[C@@H](CO)C(N)=O
% Potency Relative to Native (glucagon receptor [1]): 25.2% | % Potency Relative to Native (GLP-1 receptor [2]): 382%

B14: AIB2, AIB16, K10(C14) Gluc Amide (peptide)
peptide: H[Aib]QGTFTSDK(Myristoyl)SKYLD[Aib]RRAQDFVQWLMNT-NH2
modifications: N-terminus assumed
SMILES: CCCCCCCCCCCCCC(=O)NCCCC[C@H](NC(=O)[C@H](CC(=O)O)NC(=O)[C@H](CO)NC(=O)[C@@H](NC(=O)[C@H](Cc1ccccc1)NC(=O)[C@@H](NC(=O)CNC(=O)[C@H](CCC(N)=O)NC(=O)C(C)(C)NC(=O)[C@@H](N)Cc1c[nH]cn1)[C@@H](C)O)[C@@H](C)O)C(=O)N[C@@H](CO)C(=O)N[C@@H](CCCCN)C(=O)N[C@@H](Cc1ccc(O)cc1)C(=O)N[C@@H](CC(C)C)C(=O)N[C@@H](CC(=O)O)C(=O)NC(C)(C)C(=O)N[C@@H](CCCNC(=N)N)C(=O)N[C@@H](CCCNC(=N)N)C(=O)N[C@@H](C)C(=O)N[C@@H](CCC(N)=O)C(=O)N[C@@H](CC(=O)O)C(=O)N[C@@H](Cc1ccccc1)C(=O)N[C@H](C(=O)N[C@@H](CCC(N)=O)C(=O)N[C@@H](Cc1c[nH]c2ccccc12)C(=O)N[C@@H](CC(C)C)C(=O)N[C@@H](CCSC)C(=O)N[C@@H](CC(N)=O)C(=O)N[C@H](C(N)=O)[C@@H](C)O)C(C)C
% Activity of Glucagon (glucagon receptor [3]): 77.3% | EC50 (glucagon receptor [3]): 0.044 nM | % Activity of GLP-1 (GLP-1 receptor [4]): 33.3% | EC50 (GLP-1 receptor [4]): 0.024 nM

B15: Chimera DMIA1, Cys24 (SEQ ID NO: 519), parent w/o PEG (peptide)
peptide: [Isobutyryl(2-imidazol-4-yl)]SQGTFTSDYSKYLDEQAAKEFICWLMNT-NH2
SMILES: CC[C@H](C)[C@H](NC(=O)[C@H](Cc1ccccc1)NC(=O)[C@H](CCC(=O)O)NC(=O)[C@H](CCCCN)NC(=O)[C@H](C)NC(=O)[C@H](C)NC(=O)[C@H](CCC(N)=O)NC(=O)[C@H](CCC(=O)O)NC(=O)[C@H](CC(=O)O)NC(=O)[C@H](CC(C)C)NC(=O)[C@H](Cc1ccc(O)cc1)NC(=O)[C@H](CCCCN)NC(=O)[C@H](CO)NC(=O)[C@H](Cc1ccc(O)cc1)NC(=O)[C@H](CC(=O)O)NC(=O)[C@H](CO)NC(=O)[C@@H](NC(=O)[C@H](Cc1ccccc1)NC(=O)[C@@H](NC(=O)CNC(=O)[C@H](CCC(N)=O)NC(=O)[C@H](CO)NC(=O)C(C)(C)c1c[nH]cn1)[C@@H](C)O)[C@@H](C)O)C(=O)N[C@@H](CS)C(=O)N[C@@H](Cc1c[nH]c2ccccc12)C(=O)N[C@@H](CC(C)C)C(=O)N[C@@H](CCSC)C(=O)N[C@@H](CC(N)=O)C(=O)N[C@H](C(N)=O)[C@@H](C)O
% Potency Relative to Native (glucagon receptor [1]): 28.9% | % Potency Relative to Native (GLP-1 receptor [2]): 64.5%

B16: Chimera AIB2, Gly29,30 Cys24 Cex Lactam (SEQ ID NO: 491), parent w/PEG (peptide)
peptide: H[Aib]QGTFTSDYSKYLDEQAAKEFIC(PEG)WLMNGGPSSGAPPPS-NH2
modifications: lactam 16-20; reading uncertain
% Potency Relative to Native (glucagon receptor [1]): 1.4% | % Potency Relative to Native (GLP-1 receptor [2]): 96.4%

B17: E16, K20 DMIA1, Gly29,30 Cys24 Cex Lactam (SEQ ID NO: 513), parent w/PEG (peptide)
peptide: [Isobutyryl(2-imidazol-4-yl)]SQGTFTSDYSKYLDERRAKDFVC(PEG)WLMNGGPSSGAPPPS-NH2
modifications: lactam 16-20; reading uncertain; also: PEG size not given here
% Potency Relative to Native (glucagon receptor [1]): 12.6% | % Potency Relative to Native (GLP-1 receptor [2]): 11.3%

B18: DMIA1, K10(C14), [E16/K20]-Gluc Amide (peptide)
peptide: [DMIA]SQGTFTSDK(Myristoyl)SKYLDERRAKDFVQWLMNT-NH2
modifications: reading uncertain
% Activity of Glucagon (glucagon receptor [3]): 204% | % Activity of GLP-1 (GLP-1 receptor [4]): 30% | EC50 (GLP-1 receptor [4]): 0.05 nM

B19: E16, K20 AIB2, Cys24 Lactam (SEQ ID NO: 517), parent w/PEG (peptide)
peptide: H[Aib]QGTFTSDYSKYLDERRAKDFVC(PEG)WLMNT-NH2
modifications: lactam 16-20; reading uncertain
% Potency Relative to Native (glucagon receptor [1]): 15.8% | % Potency Relative to Native (GLP-1 receptor [2]): 31%
